In experiment [1] the target is human Nectin4-Ig (Nectin4-Fc fusion protein) (human) (UniProt Q96NY8). The experiment can be described thus: microscale thermophoresis with fluorophore-labeled human Nectin4-Ig. (In general: Microscale thermophoresis detects binding through changes in fluorescence in a small temperature gradient.)
In experiment [2] the target is T1, murine Nectin4 expressed on cells (murine, UniProt Q8R007 31-508).
T1 construct: whole, on cells; also called mNectin4
T1 sequence (looked up): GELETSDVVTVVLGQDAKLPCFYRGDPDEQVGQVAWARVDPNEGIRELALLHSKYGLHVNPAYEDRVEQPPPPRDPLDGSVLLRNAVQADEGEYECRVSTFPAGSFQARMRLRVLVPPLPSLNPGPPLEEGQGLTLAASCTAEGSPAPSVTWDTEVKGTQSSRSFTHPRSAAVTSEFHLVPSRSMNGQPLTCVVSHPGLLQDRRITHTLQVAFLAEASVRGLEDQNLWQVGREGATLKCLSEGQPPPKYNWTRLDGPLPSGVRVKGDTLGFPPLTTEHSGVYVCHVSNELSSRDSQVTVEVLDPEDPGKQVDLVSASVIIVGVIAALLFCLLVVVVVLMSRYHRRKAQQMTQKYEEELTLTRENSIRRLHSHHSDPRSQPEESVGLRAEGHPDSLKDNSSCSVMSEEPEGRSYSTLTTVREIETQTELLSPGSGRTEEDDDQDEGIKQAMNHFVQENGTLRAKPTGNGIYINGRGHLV
The experiment can be described thus: FACS staining of RAJI cells transfected with murine Nectin4. The method, then:
(A) Western blots of RAJI cells transfected with murine Nectin4 (indicated as mNectin4) and detected with commercial anti-murine Nectin4 mAb (Clone 356704 which doesn't work for flow cytometry). Expression was compared to RAJI cells expressing empty vector (indicated as Empty). Staining for hGAPDH was used as loading control. (B-C) FACS staining of RAJI cells transfected with murine Nectin4 (black line histograms). Cells were stained with 0.2 μg of (B) clone hNec4.01 or (C) clone hNec4.05.
RAJI cells were transfected with murine Nectin4 (black line histograms). First, RAJI cells transfected with murine Nectin4 lysates was used in Western blot assay with a commercial anti murine Nectin4 mAb (Clone 356704) in order to verify murine Nectin4 expression (A). Next, the cells were stained with 0.2 μg of (B) clone hNec4.01 or (C) clone hNec4.05.

Experiment [3] concerns the target T2, human Nectin4 expressed on cells (human, UniProt Q96NY8 32-510).
T2 construct: whole, on cells; also called PVRL4; native human Nectin-4
T2 sequence (looked up): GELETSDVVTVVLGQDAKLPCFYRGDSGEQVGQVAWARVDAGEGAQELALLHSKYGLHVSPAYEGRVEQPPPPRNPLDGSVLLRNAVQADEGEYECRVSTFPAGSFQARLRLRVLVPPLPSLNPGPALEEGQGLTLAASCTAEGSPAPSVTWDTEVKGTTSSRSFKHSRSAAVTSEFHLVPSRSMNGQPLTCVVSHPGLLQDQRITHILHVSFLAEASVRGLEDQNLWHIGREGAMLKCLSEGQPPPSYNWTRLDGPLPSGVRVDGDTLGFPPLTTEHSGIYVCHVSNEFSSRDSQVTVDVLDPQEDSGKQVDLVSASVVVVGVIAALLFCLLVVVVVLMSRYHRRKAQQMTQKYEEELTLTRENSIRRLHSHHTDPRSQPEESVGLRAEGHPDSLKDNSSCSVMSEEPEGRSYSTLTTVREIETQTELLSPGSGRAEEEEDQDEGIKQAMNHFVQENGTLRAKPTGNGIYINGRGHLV
In words: FACS blocking assay, RAJI cells transfected with human Nectin4, 1 µg clone, then 3 µg Nectin1-Ig; blocked ligand Nectin1-Ig. The method, then:
FIGS. 6A-6C Blocking of Nectin4-Nectin1 interactions. (A-B) FACS staining of RAJI cells transfected with human-Nectin4. Cells were pre-incubated with 1 μg of (A) clone hNec4.01, or (B) clone hNec4.05 and then incubated with 3 μg of Nectin1-Ig (black line histograms). Staining without blocking appears as gray line. Grey filled histograms are background control staining of secondary antibody only. (C) Mean Fluorescence Intensity (MFI) values of FACS staining of A and B.
For staining of human TIGIT-Ig or human Nectin1-Ig, cells were incubated on ice for 1 hour with 3 μg of TIGIT-Ig per 100,000 cells. Detection was performed with a secondary Alexa Fluor 647 anti-human (Jackson ImmunoResearch) for 30 min on ice. For blocking experiments cells were pre-incubated with 1 μg of the indicated antibody prior to the TIGIT-Ig or human Nectin1-Ig staining. In some cases, cells were incubated with 8 ug/ml of the indicated Ab together with human TIGIT-Ig or human Nectin-1-Ig (at 20 ug/ml). Detection of ligand binding was performed with a secondary Alexa Fluor 647 anti-human Ab (Jackson ImmunoResearch).
The ability to the anti-Nectin4 to block Nectin4-Nectin1 interactions was also determined. […] Cells were Pre-incubated with 1 μg of (FIG. 6A) clone hNec4.01 or (FIG. 6B) clone hNec4.05 and then incubated with 3 μg of Nectin1-Ig (black line). Staining without blocking appears as gray line. […]

Experiment [4] addresses T2, human Nectin4 expressed on cells. The experiment can be described thus: FACS titration on MDA-MD-453 cells. Here is the method:
(§1) FIGS. 8A-8C Antibody clones hNec4.05 and hNec4.11 binding to cell surface Nectin-4. (A) Antibody binding to Nectin-4 expressed on the human cell line MDA-MD-453 was evaluated by FACS analysis. […] (B) Antibody binding to CHO cells transfected with Cynomolgus (Cyno)-Nectin-4 and analyzed as in A. (C) Antibody binding to CHO cells transfected with murine-Nectin-4 and analyzed as in A. ND—not detected.
(§2) Binding of murine anti-human Nectin-4 clones hNec4.05 and hNec4.11 to Nectin-4 expressed on the human cell line MDA-MD-453 was evaluated by FACS analysis. […] FIG. 8B depicts antibody binding to CHO cells transfected with Cynomolgus (Cyno)-Nectin-4 and FIG. 8C depicts antibody binding to CHO cells transfected with murine-Nectin-4. […] This may be important for pre-clinical studies of the Ab.

The target is the same in experiment [5]. In words: FACS titration (20-0.01 nM) on the human cell line titled 'MDA-MD-543' on the sheet (MDA-MD-453 in the legend). Here is the method: as §1, §2
The target of experiment [6] is T1, murine Nectin4 expressed on cells. In words: FACS titration on CHO cells transfected with murine Nectin-4, compared with MDA-MD-453 cells. The method, then:
as §1, §2

Experimental findings from US20210130459A1 (YISSUM RESEARCH DEVELOPMENT COMPANY OF THE HEBREW …, published 2021) are described below.

B1: monoclonal antibody hNec4.01 (antibody, IgG1, V domains shown)
VH: EVQLQQSGPELVKPGASVKIACRASGYTFTAYNIHWVSQRHGKSLEWIGYIYPNNGGSGYNQKFMNKATLTVDHSSNTAYMELRSLTSEDSAVYYCAIFDYDEAWFIYWGQGTLVTVSA
VL: ENVLTQSPEIMSASPGEEVTMTCSASSSVSYMHWFQQKSTISPKLWIYDTSKLASGVPGRFSGSGSGKSYSLTIRNMEAEDVATYYCFQGSGSPYTFGGGTKLEIK
notes: also called Nectin4.01; Clone 1
B1 returned a Kd in experiment [1] of 0.107 nM. The binding result in experiment [2] is reported as “no binding (tested: 0.2 µg)”; in experiment [3], “binds”.

B2: monoclonal antibody hNec4.05 (antibody, IgG1, V domains shown)
VH: QVQLQQSGPELVKPGASVRISCKASGYTFTTYYIHWVKQRPGQGLEWIGWIYPGNVNTKNNEKFKVKATLTADKSSSTAYMQLSSLTSEDSAVYFCARSNPYVMDYWGQGTSVTVSS
VL: SIVMTQTPKFLLVSAGDRVTITCKASQSVSNDVAWYQQKPGQSPKLLIYYASNRYTGVPDRFTGSGYGTDFTFTISAVQAEDLAVYFCQQDYSSPYTFGGGTKLEIK
notes: also called Nectin4.05; Clone 5
For the molecule B2, the Kd in experiment [1] was found to be 0.272 nM. The binding result in experiment [2] is given as “no binding (tested: 0.2 µg)”; in experiment [3], “binds”.

B3: chimeric clone hNec4.05hIgG1 (antibody, V domains shown)
VH: QVQLQQSGPELVKPGASVRISCKASGYTFTTYYIHWVKQRPGQGLEWIGWIYPGNVNTKNNEKFKVKATLTADKSSSTAYMQLSSLTSEDSAVYFCARSNPYVMDYWGQGTSVTVSS
VL: SIVMTQTPKFLLVSAGDRVTITCKASQSVSNDVAWYQQKPGQSPKLLIYYASNRYTGVPDRFTGSGYGTDFTFTISAVQAEDLAVYFCQQDYSSPYTFGGGTKLEIK
notes: also called human IgG1 chimeric Ab clone hNec4.05; chimeric version of hNec4.05
B3: the binding result in experiment [4] is “binds”.

B4: chimeric clone hNec4.11hIgG1 (antibody, V domains shown)
VH: QVQLQQSGPELVKPETSVKISCKASGYTFTSYYIHWVKQRPGQGLEWIGWIYPGNVNTKYNERFKGKATLTADKSSNTAHMQLTSLTSEDSAVYFCARSNPYVMDYWGQGTSVTVSS
VL: SIVMTQTPKFLLVSAGDRVTITCKASQSVNNDVAWYQQKPGLSPELLMYYASNRFTGVPDRFTGSGYGTDFTFTISSVQAEDLAIYFCQQAYRSPYTFGGGTKLEIQ
notes: also called human IgG1 chimeric Ab clone hNec4.11; chimeric version of hNec4.11
As to B4, in experiment [4], the binding result is “binds”.

B5: monoclonal antibody hNec4.11 (antibody, V domains shown)
VH: QVQLQQSGPELVKPETSVKISCKASGYTFTSYYIHWVKQRPGQGLEWIGWIYPGNVNTKYNERFKGKATLTADKSSNTAHMQLTSLTSEDSAVYFCARSNPYVMDYWGQGTSVTVSS
VL: SIVMTQTPKFLLVSAGDRVTITCKASQSVNNDVAWYQQKPGLSPELLMYYASNRFTGVPDRFTGSGYGTDFTFTISSVQAEDLAIYFCQQAYRSPYTFGGGTKLEIQ
notes: also called Nectin4.11; clone 11
With B5, the binding result in experiment [5] is on record as “binds”. Besides, the “fold EC50 against the EC50 for the human target” value in experiment [6] was about 10 fold.

The Kd is the constant that tells how readily two partners part at equilibrium. The low end stands for a tighter complex, the high end for a looser complex.
